This note sets out measurements from US11045560B2, “Therapeutic conjugates with sulfated dendrimers for intracellular targeting” (IC DISCOVERY GMBH, priority 2014, dated 2021).

In assay [1] the test system is HT29, HepG2, QGP-1, MCF-7. The experiment in a line: Inhibition of cell proliferation by MTT test, comparison to sulfated polymer. The format is cell-based, human. As to conditions: range from 4 cell lines (Table 8). As to the method: For cytotoxicty measurements, 2×10^5 cells were incubated with 1 ml culture medium containing increasing concentrations of test substances. After 72 hs treatment, cell number, viability and cell diameter as parameter of apoptotic processes were analyzed in a cell counter and analyzer system (CASY®, Schärfe Systems). In addition, drug cytotoxicity was assessed in vitro using the MTT assay (cellular reduction of 3-(4,5-dimethylthiazol-2-yl)-2,5-diphenyltetrazolium bromide) as a test for metabolic activity of the cells. 1×10^4 cells per well were seeded in 96-well plates in 100 μl culture medium containing increasing concentration of the test substance. 10 μl MTT (5 mg/ml in PBS, obtained from Sigma) was added to each well and the plates were incubated for 4 hrs, 24 hrs, 48 hrs or up to 72 h. The resulting formazan product was dissolved with acid isopropanol and the absorbance at a wavelength of 570 nm (Ex570) was read on a Microplate Spectrophotometer (Anthos htII, Microsystems). In a couple of experiments, medium with test substances was removed after 48 hs, cells were counted and identical cell numbers with new medium without test substances were seeded in new plates. MTT assay was performed after further incubation for 72 hours.
This polymer is functionalized with the linker maleimido-PEG(4)-COOH NHS ester as described in example 2a, and further purified via RP chromatography. […]

The test system of assay [2] is HT29, HepG2, QGP-1, A431, MCF-7, A2780. Description: Inhibition of cell proliferation measured by MTT test. The format is cell-based, human.
For assay [3] the test system is unchanged. The note with it: for % uptake: FACS, relative to ICC-d01, range from different cell lines, incubation 24 h, conjugates additionally ICC-labeled, fluorescence-corrected.
Procedure: The human cancer cell lines A2780 and QGP-1 are cultured in RPMI medium, with 10% fetal calf serum (FCS), 2% glutamine, and penicillin/streptomycin added. All cells are seeded into medium at 1×10^5 cells/ml, cultured at 37° C. with 5% CO2, and split 1:5 two times a week. The epithelial human cancer cell lines A549, MCF7, HaCaT, and HepG2 are propagated in DMEM medium (PAN Biotech), with 10% fetal FCS, 2% glutamine, and penicillin/streptomycin. Cells are seeded into medium at 1×10^5 cells/ml (37° C. with 5% CO2, split 1:5 two times a week). HT29 cells are cultured in McCoy's medium (PAN biotech), with 10% FCS), 2% glutamine, and penicillin/streptomycin. Cells are seeded into medium at 1×10^5 cells/ml (37° C. with 5% CO2, split 1:10 two times a week). […] Afterwards, cells are fixed with cold acetone, rinsed and covered with 4,6-diamidino-2-phenylindole (DAPI, Abcam) for nuclear counterstain. Image acquisition is performed using a Leica DMRB microscope (Leica). Images are taken with a digital camera (Spot 32, Diagnostic Instruments) with the same exposure time for all pictures. […] This amount and time is sufficient to measure the supernatant after pooling and cell lysis with DMSO.
For FACS studies, 2×10^5 cells/ml cells are cultured in 24-well plates with normal culture medium or medium containing different concentrations of test substances for 3 or 24 hours. Thereafter, cells are washed with PBS and detached with 200 μl/well accutase (PAA) and washed two times with PBS. Cells are fixed with 500 μl 3% paraformaldehyde for 10 min at 4° C., stopped with 2 ml PBS and centrifuged with 250×g, for 10 min at 4° C. Supernatants are removed and cells were suspended in 200 μl PBS with 0.5% bovine serum albumin (Roth).
Fixed cells are kept at 4° C. until analysis in a FACS Calibur instrument (Becton-Dickinson).
The next assay concerns QGP-1 tumor cells. Description: Uptake into QGP-1 cells by FACS in presence of genistein or rifamycin. The assay is classed as cell-based, human. The note with it: for uptake +genistein (%) / uptake +rifamycin (%): relative to without inhibitor; for uptake w/o inhibitor (%): without inhibitor defined as 100%. As to the method: Studies on cellular uptake measured by FACS were conducted as described in example 13. Compound Asp-d13 is incubated at a concentration of 10^−7 M in QGP-1 tumor cells for 3 h and 6 h. Incubation is done in the presence of one of the following two substrates: (1) 0.1 mM genistein, an inhibitor for endocytotic uptake (Rejman et al., Mol. Ther. 2005, 12, 468-474) or (2) 50 mM rifamycin, an inhibitor of uptake via organic anion transporter proteins (OATP; Bi et al., Drug Metab Dispos. 2012, 40, 1085-92).

Where [4] appears, read: range from different cell lines (Table 6).
The mark [5] stands for this setting: range from different cell lines, peptide-dendrimer conjugates (Table 7).

No end group written: not given here. d02 = not defined here Where only a bound is given, the exact number is not on record here.

What is called IC50 is the midpoint of a concentration-inhibition curve. A high value points to lower potency. Consider saporin, for which the IC50 in assay [1] and in assay [2] (setting [4]) was above 1 µM each time. For the same molecule, the “% uptake” value in assay [3] is reported as 5-8%.

Take Diphtheria toxin: in assay [2] (setting [4]), the half-maximal inhibitory concentration (IC50) was above 0.5 µM. For the same molecule, in assay [3], the “% uptake” value was 8-10%.

As for DNase, in assay [2] (setting [4]), the IC50 is above 2 µM. Moreover, the “% uptake” value in assay [3] is on record as 4-12%.

As for “d02-P1: peptide P1 conjugated to maleimido dendrimer d02 (CGMRPEIWIAQELRRIGDEFNA; conjugated to maleimido dendrimer d02; BIM)”, the 50% inhibitory concentration (IC50) in assay [2] (setting [5]) was 0.9 to 2.1 µM.

In the case of “d02-P5: peptide P5 conjugated to maleimido dendrimer d02 (C(d02)GEEQWAREIGAQLRRMADDLNAQYER-NH2; reading uncertain; also: conjugated via N-terminal Cys thiol to maleimido dendrimer d02)”, in assay [2] (setting [5]), the IC50 lay within 0.8 to 2 µM.

As to “d02-P6: peptide P6 conjugated to maleimido dendrimer d02 (C(d02)GEDIIRNIARHAAQVGASADRSI-NH2; reading uncertain; also: conjugated via N-terminal Cys thiol to maleimido dendrimer d02)”, the IC50 in assay [2] (setting [5]) lay in the range of 1.2 to 2.3 µM.

B1: L-asparaginase (protein, UniProt P00805 23-348, looked up)
L-asparaginase 2: LPNITILATGGTIAGGGDSATKSNYTVGKVGVENLVNAVPQLKDIANVKGEQVVNIGSQDMNDNVWLTLAKKINTDCDKTDGFVITHGTDTMEETAYFLDLTVKCDKPVVMVGAMRPSTSMSADGPFNLYNAVVTAADKASANRGVLVVMNDTVLDGRDVTKTNTTDVATFKSVNYGPLGYIHNGKIDYQRTPARKHTSDTPFDVSKLNELPKVGIVYNYANASDLPAKALVDAGYDGIVSAGVGNGNLYKSVFDTLATAAKTGTAVVRSSRVPTGATTQDAEVDDAKYGFVASGTLNPQKARVLLQLALTQTKDPQQIQQIFNQY
notes: enzyme, homotetramer of 4 units of 34 kDa (L-asparaginase 5000E, Medac), without dendrimer
Molecule B1 yielded an IC50 in assay [2] (setting [4]) above 1.5 µM. Besides, the “% uptake” value in assay [3] is 4-7%. Moreover, the “uptake into tumor cells” value in assay [3] (in words, referring to example 15) is “do not show uptake into tumor cells”.

B2: Asp-d13: L-asparaginase conjugated with maleimido dendrimer d13 (conjugate, UniProt P00805 23-348, looked up)
L-asparaginase 2: LPNITILATGGTIAGGGDSATKSNYTVGKVGVENLVNAVPQLKDIANVKGEQVVNIGSQDMNDNVWLTLAKKINTDCDKTDGFVITHGTDTMEETAYFLDLTVKCDKPVVMVGAMRPSTSMSADGPFNLYNAVVTAADKASANRGVLVVMNDTVLDGRDVTKTNTTDVATFKSVNYGPLGYIHNGKIDYQRTPARKHTSDTPFDVSKLNELPKVGIVYNYANASDLPAKALVDAGYDGIVSAGVGNGNLYKSVFDTLATAAKTGTAVVRSSRVPTGATTQDAEVDDAKYGFVASGTLNPQKARVLLQLALTQTKDPQQIQQIFNQY
modifications: maleimido dendrimer d13 conjugate
Turning to B2, the “FACS signal in the presence of genistein relative to without inhibitor” value with QGP-1 tumor cells (10^−7 M, 3 h and 6 h, 0.1 mM genistein) is 80-85%. For the same molecule, the “FACS signal in the presence of rifamycin relative to without inhibitor” value with QGP-1 tumor cells (10^−7 M, 3 h and 6 h, 50 mM rifamycin) is 37-40%. Moreover, in assay [2] (setting [4]), the IC50 was 0.01 to 0.02 µM.

B3: Asp-polyglycerolsulfate: L-asparaginase coupled to a polyglycerolsulfate, mean molecular weight 12000 Da, according to WO2011/095311 (conjugate, UniProt P00805 23-348, looked up)
L-asparaginase 2: LPNITILATGGTIAGGGDSATKSNYTVGKVGVENLVNAVPQLKDIANVKGEQVVNIGSQDMNDNVWLTLAKKINTDCDKTDGFVITHGTDTMEETAYFLDLTVKCDKPVVMVGAMRPSTSMSADGPFNLYNAVVTAADKASANRGVLVVMNDTVLDGRDVTKTNTTDVATFKSVNYGPLGYIHNGKIDYQRTPARKHTSDTPFDVSKLNELPKVGIVYNYANASDLPAKALVDAGYDGIVSAGVGNGNLYKSVFDTLATAAKTGTAVVRSSRVPTGATTQDAEVDDAKYGFVASGTLNPQKARVLLQLALTQTKDPQQIQQIFNQY
modifications: polyglycerolsulfate conjugate, 12000 Da
As for B3, the “uptake +genistein (%)” value in the assay with QGP-1 tumor cells (3 h, 0.1 mM genistein) was 50%; in the assay with QGP-1 tumor cells (6 h, 0.1 mM genistein), 55%. Also, the “uptake +rifamycin (%)” value with QGP-1 tumor cells (3 h, 50 mM rifamycin) was 76%; in the assay on QGP-1 tumor cells (6 h, 50 mM rifamycin) it was 72%. For the same molecule, the “uptake w/o inhibitor (%)” value in the assay with QGP-1 tumor cells (3 h) and with QGP-1 tumor cells (6 h) was 100% each time. For the same molecule, the “dependency of uptake on endocytosis” value in the assay on QGP-1 tumor cells (inhibition by genistein, in words) is “endocytosis could be identified due to inhibition by genistein”.
